Experimental data from paper PMC9436932 (Scientific Reports, 2022).

Biological target: the molecule itself
Assay: SEC

B1: TatB^22–171 (soluble membrane-extrinsic cytoplasmic domain of E. coli TatB, transmembrane helix residues 1–21 deleted) (domain or fragment, UniProt P69425 22-171, looked up)
chain: PQRLPVAVKTVAGWIRALRSLATTVQNELTQELKLQEFQDSLKKVEKASLTNLTPELKASMDELRQAAESMKRSYVANDPEKASDEAHTIHNPVVKDNEAAHEGVTPAAAQTQASSPEQKPETTPEPVVKPAADAEPKTAAPSPSSSDKP
notes: also called membrane-extrinsic domain of TatB; soluble TatB
Question: Does B1 bind?
Answer: binds
